Experimental data reported in publication PMC11890865.

Tests used:
Assay in all cases: cryo-EM structure; ZorAB complex co-expressed from one operon and co-purified in LMNG; TBS (100 mM Tris, 150 mM NaCl, 1 mM EDTA, pH 8.0) plus 0.02% LMNG; Quantifoil Au grids, Titan Krios G4 at 300 kV
[1] = target: ZorB II from Sulfuricurvum kujiense DSM 16994 (Zorya type II) (Sulfuricurvum kujiense DSM 16994)
[2] = target: ZorA I from Shewanella sp. ANA-3 (Zorya type I) (Shewanella sp. strain ANA-3)
[3] = target: ZorA II from Sulfuricurvum kujiense DSM 16994 (Zorya type II) (Sulfuricurvum kujiense DSM 16994)
[4] = target: ZorB I from Shewanella sp. ANA-3 (Zorya type I) (Shewanella sp. strain ANA-3)

ZorB II from Sulfuricurvum kujiense DSM 16994 (Zorya type II) (natural protein)
stoichiometry N [1]: 2

ZorA I from Shewanella sp. ANA-3 (Zorya type I) (natural protein)
stoichiometry N [2]: 5

ZorA II from Sulfuricurvum kujiense DSM 16994 (Zorya type II) (natural protein)
stoichiometry N [3]: 5

ZorB I from Shewanella sp. ANA-3 (Zorya type I) (natural protein)
stoichiometry N [4]: 2
